For this assay, the target named is T1, human VEGF165 (human, UniProt P15692 27-191).
T1 construct: mature; The canonical UniProt entry is a longer isoform, so the VEGF165 isoform must be chosen; also called recombinant VEGF165 protein; VEGF-A
Nature of the assay: SPR, in vitro, recombinant VEGF165, 37 °C. The procedure:
The brolucizumab: VEGF binding parameter values (Table 8) were defined on the basis of a surface plasmon resonance (SPR) in vitro binding experiment with drug and recombinant VEGF165 protein at 37° C. These in vitro measured brolucizumab: VEGF binding parameter values were then scaled similar to ranibizumab to obtain in vivo estimates. […] The scaling is performed such that the koff is kept constant and the kon is divided by the scaling factor.
In general terms: In SPR one partner is held on a chip, and binding of the other changes the refractive index at the surface.

Usually Kd stands for the equilibrium constant for the complex coming apart. As a reminder, the koff is the rate constant with which the complex falls apart. The kon is the second-order rate constant of association.

T1 sequence (P15692 other isoform, or with tags, fused parts or gaps): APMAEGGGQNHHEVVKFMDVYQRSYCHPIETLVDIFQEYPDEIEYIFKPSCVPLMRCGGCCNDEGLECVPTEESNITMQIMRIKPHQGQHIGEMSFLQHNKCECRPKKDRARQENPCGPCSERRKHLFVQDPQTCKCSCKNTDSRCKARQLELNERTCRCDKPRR

B1: brolucizumab (scFv)
scFv: MEIVMTQSPSTLSASVGDRVIITCQASEIIHSWLAWYQQKPGKAPKLLIYLASTLASGVPSRFSGSGSGAEFTLTISSLQPDDFATYYCQNVYLASTNGANFGQGTKLTVLGGGGGSGGGGSGGGGSGGGGSEVQLVESGGGLVQPGGSLRLSCTASGFSLTDYYYMTWVRQAPGKGLEWVGFIDPDDDPYYATWAKGRFTISRDNSKNTLYLQMNSLRAEDTAVYYCAGGDHNSGWGLDIWGQGTLVTVSS
notes: Humanized scFv of about 26 kDa, VL-linker-VH; also called Beovu; drug
As to B1, the Kd stood at 0.101 nM, the koff is 0.00025 s⁻¹ and the on-rate constant (kon) worked out at 2.5e+06 M⁻¹ s⁻¹.

Values taken from patent US20250197486A1 (Novartis, published 2025).
